Test results published in patent publication US20240109962A1 (SPARX BIOSCIENCE, published 2024).
Substitutions are numbered along the chain they refer to. Where two headings read alike, the source gives them in different places. Blank lines part the entries; values can stand above or below the binder they belong to.

Key:
LILRB3-His = target: T1, LILRB3-His; experiment: ELISA on recombinant His-tagged protein, OD450
T1 construct: also called His-tagged LILRB3; recombinant LILRB3 protein

[1] = target: LILRB2 antigen of the ELISA of Table 5 (format not specified) (UniProt Q8N423 22-460, limits assumed); experiment: ELISA, antibody titration
[2] = target: T2, human LILRB3 expressed on 293T cells (human, UniProt O75022 24-631); experiment: cell ELISA on fixed 293T transfectants, OD490
T2 construct: whole, on cells
Procedure: (§1) The cells were then immobilized with glutaraldehyde in the presence of 5% defatted milk at room temperature for 2 hours. An anti-LILRB2 antibody (2 μg/ml) was added to each well and incubated at room temperature for 2 hours. An HRP-labelled goat anti-mouse secondary antibody was then added into each well and incubated at room temperature for one hour. An HRP substrate, o-phenylenediamine dihydrochloride (OPD) was then added to each well. The plate was incubated at room temperature for 15 min to allow color development and OD₄₉₀ values were determined.

[3] = target: T3, human LILRB2 expressed on cells (293T-LILRB2, CHO-K1-LILRB2) (human, UniProt Q8N423 22-597); experiment: flow cytometry, blockade of His-tagged HLA-G tetramer binding to 293T-LILRB2 cells; fit table under the graph
T3 construct: whole, on cells; the cell line is named under assay; also called HEK293T-LILRB2
Procedure: Serial diluted humanized LILRB2 antibodies were then added to the mixture and incubated at room temperature for another 45 minutes. The binding of HLA-G/LILRB2 was detected afterwards using a secondary PE-labeled anti-His tag antibody via flow cytometry.

[4] = target: T3, human LILRB2 expressed on cells …; experiment: flow cytometry on 293T-LILRB2 cells, serial dilution, APC anti-human IgG; fit table under the graph
Excerpt: (§2) The cells were washed and then subject to flow cytometry to measure levels of fluorescent signals.

[5] = target: T3, human LILRB2 expressed on cells …; experiment: as above; remark: listed apart in the source
Excerpt: as §2

[6] = target: T4, His-tagged human LILRB2 polypeptide (human, UniProt Q8N423 22-460); experiment: SPR, antibody on CM5 chip, His-LILRB2 analyte, 1:1 model
T4 construct: SPR analyte; also called His-tagged human LILBR2 polypeptide; not shown: His tag
Procedure: Surface plasmon resonance (SPR) was used to examine binding activities of exemplary anti-LILBR2 antibodies disclosed herein. Briefly, the anti-LILBR2 antibody was diluted in a coating buffer to a concentration of 30 μg/ml, loaded onto CM5 chips at 10 μl/min to allow coating of the antibody on the surface of the CM5 chip. […] Binding affinity was measured based on the 1:1 binding model.

LILRB1-His = target: T5, LILRB1-His; experiment: ELISA on recombinant His-tagged protein, OD450
T5 construct: also called His-tagged LILRB1; recombinant LILRB1 protein

[7] = target: T2, human LILRB3 expressed on 293T cells; experiment: flow cytometry on 293T transfectants, MFI
Procedure: (§3) The cells were then immobilized with glutaraldehyde in the presence of 5% defatted milk at room temperature for 2 hours. An anti-LILRB2 antibody (5 μg/ml) was added to each well and incubated at room temperature for 1 hours. An Alex Flour®-labelled goat anti-mouse secondary antibody (1:2,000 dilution) was then added into each well and incubated at room temperature for 30′. The cells were washed twice with PBS after the staining. Fluorescence intensities (MFI) were measured.

[8] = target: T6, human LILRB1 expressed on 293T cells (human, UniProt Q8NHL6 24-650); experiment: flow cytometry on 293T transfectants, MFI
T6 construct: whole, on cells
Procedure: as §3

[9] = target: T3, human LILRB2 expressed on cells …; experiment: flow cytometry on 293T-LILRB2 cells, serial dilution, APC anti-human IgG; fit table under the graph; remark: listed apart in the source
Excerpt: as §2

[10] = target: T6, human LILRB1 expressed on 293T cells; experiment: cell ELISA on fixed 293T transfectants, OD490
Procedure: as §1

Sequence of LILRB2 antigen of the ELISA of Table 5 (format not specified) (Q8N423 22-460 limits assumed): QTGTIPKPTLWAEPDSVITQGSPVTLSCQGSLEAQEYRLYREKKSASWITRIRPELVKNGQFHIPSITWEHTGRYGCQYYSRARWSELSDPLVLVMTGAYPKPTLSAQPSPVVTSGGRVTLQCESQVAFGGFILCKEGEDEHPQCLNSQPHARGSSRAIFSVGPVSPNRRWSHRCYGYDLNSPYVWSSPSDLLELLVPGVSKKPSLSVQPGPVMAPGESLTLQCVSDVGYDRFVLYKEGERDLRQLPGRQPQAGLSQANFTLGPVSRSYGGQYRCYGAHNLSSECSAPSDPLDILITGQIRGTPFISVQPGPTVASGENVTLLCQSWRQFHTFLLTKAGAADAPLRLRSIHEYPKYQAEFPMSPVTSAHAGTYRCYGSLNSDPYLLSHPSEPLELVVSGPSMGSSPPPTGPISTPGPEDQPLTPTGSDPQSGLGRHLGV
T4 sequence (Q8N423 22-460 limits assumed): as above
T6 sequence (Q8NHL6 24-650): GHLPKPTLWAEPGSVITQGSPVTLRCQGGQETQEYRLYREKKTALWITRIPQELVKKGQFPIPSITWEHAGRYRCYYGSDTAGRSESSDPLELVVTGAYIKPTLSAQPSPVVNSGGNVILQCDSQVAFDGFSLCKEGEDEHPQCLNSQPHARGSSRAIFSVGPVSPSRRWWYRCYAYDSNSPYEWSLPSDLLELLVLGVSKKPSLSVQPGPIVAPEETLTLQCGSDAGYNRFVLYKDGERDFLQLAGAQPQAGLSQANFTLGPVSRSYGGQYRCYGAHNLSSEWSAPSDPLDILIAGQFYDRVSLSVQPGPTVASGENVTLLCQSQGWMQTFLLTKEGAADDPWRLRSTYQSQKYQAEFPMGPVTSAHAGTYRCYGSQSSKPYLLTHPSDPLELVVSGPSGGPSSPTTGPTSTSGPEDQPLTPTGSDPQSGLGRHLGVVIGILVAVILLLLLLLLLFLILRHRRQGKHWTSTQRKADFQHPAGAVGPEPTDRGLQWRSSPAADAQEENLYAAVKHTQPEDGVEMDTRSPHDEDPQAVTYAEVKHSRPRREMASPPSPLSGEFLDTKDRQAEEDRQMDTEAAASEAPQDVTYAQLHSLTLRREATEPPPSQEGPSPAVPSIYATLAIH
T3 sequence (Q8N423 22-597): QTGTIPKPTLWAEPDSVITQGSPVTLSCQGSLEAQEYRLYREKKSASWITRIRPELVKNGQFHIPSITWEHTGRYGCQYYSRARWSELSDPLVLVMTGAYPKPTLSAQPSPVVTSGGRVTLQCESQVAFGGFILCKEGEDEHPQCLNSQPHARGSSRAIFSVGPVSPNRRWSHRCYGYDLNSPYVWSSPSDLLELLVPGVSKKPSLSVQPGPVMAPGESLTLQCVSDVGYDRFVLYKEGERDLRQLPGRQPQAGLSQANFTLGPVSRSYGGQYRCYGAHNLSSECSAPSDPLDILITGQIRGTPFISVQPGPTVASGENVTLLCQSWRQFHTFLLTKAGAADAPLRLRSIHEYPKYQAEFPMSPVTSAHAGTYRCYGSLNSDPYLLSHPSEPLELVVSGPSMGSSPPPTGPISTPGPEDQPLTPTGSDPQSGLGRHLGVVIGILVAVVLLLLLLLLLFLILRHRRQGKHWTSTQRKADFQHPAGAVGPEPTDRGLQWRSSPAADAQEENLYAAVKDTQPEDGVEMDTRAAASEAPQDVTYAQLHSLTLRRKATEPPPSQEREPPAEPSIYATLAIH
T5 sequence (chain, as listed by the source limits assumed): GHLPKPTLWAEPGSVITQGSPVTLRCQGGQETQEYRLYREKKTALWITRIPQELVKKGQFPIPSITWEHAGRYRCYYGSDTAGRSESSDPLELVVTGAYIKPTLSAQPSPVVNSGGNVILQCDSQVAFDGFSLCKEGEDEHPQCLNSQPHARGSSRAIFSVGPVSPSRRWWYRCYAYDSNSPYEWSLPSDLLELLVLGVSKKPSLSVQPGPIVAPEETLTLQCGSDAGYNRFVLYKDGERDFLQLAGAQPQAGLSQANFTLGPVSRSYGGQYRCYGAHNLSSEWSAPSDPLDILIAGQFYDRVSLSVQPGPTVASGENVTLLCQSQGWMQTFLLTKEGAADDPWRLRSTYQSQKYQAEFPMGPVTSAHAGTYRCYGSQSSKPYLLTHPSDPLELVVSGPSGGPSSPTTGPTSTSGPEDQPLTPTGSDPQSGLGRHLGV

binding result (LILRB3-His): no binding | Kd [1]: 0.195 nM | binding result [2]: no binding (tested: 2 µg/ml)
B1: Antibody 10B11 (antibody, V domains shown)
VH: EIQLQQSGPELVKPGASVKVSCKASGNSFTDNNIYWVKQSHGESLEWIGYIDPFNGRTTYNQKFKGKATLTVDKSSSTAFMHLNSLTSGDSAVYYCARGDYFNYWGQGTTLTVSS
VL: EIQMTQTTSSLSASLGDRVTISCSASQGINNYLNWFQQKSDGTVKLLIYYTSSLHSGVPSRFSGSGSGTDYSLTISNLEPEDIAIYYCQQYSNLPFTFGGGTELEIK
notes: Mouse hybridoma mAb purified from ascites

binding result (LILRB3-His): no binding | Kd [1]: 0.216 nM | binding result [2]: no binding (tested: 2 µg/ml)
B2: Antibody 4A9 (antibody, V domains shown)
VH: EIQLQQSGPELVKPGASVKVSCKASGSSFTDYNMYWVKQIHGKSLDWIGYIDPYNGRTTYNQKFKGKATLTVDKSSSTAFMHLNSLTSEDSAVYYCAGGDYFDYWGHGTSLTVSS
VL: B1 VL with N30S, S40P, S53T, Y71F, E79D, I83F, I85T, F96Y, E103K
notes: as for B1

binding result (LILRB3-His): no binding | Kd [1]: 1.43 nM | binding result [2]: no binding (tested: 2 µg/ml)
B3: Antibody 11D9 (antibody, V domains shown)
VH: EIQLQQSGPELVKPGASVKLSCKASGYAFTTYNMYWVKQSPGKSLEWIGYIDPYNGGATYNLKFKGKATLTVDKSSSAAYMHLNGLTSEDSAVYYCAGGDYFNYWGQGTILTVSS
VL: B1 VL with E1D, S24R, G28V, S40P, S53T, I83F, I85T, N93T, F96Y, E103K
notes: as for B1

IC50 [3]: 0.56 nM | Span [3]: 6960 RFU | Bmax [4]: 684000 RFU | Kd [4]: 0.394 nM
B4: Antibody h#2C1 (antibody, V domains shown)
VH: EVQLVESGGGLVQPGGSLRLSCAVSGYSITSGYYWNWVRQAPGKGLEWVAYISYDGNNNYNPSLKNRFTISRDTSKNTFYLQMNSLRAEDTAVYYCAREESTMITTAWFAYWGQGTLVTVSS
VL: DIQMTQSPSSLSASVGDRVTITCRASENIYSNLAWYQQKPGKAPKLLIYGATNLASGVPSRFSGSGSGTDYTLTISSLQPEDFATYYCQHFWDTPYTFGQGTKVEIK
notes: Humanized variant of 11B12

Bmax [5]: 565000 RFU | Kd [5]: 0.412 nM | IC50 [3]: 0.613 nM | Span [3]: 6830 RFU
B5: Antibody h#2D1 (antibody, V domains shown)
VH: B4 VH with F79V, A97V
VL: B4 VL
notes: Humanized variant of 11B12

Bmax [5]: 563000 RFU | Kd [5]: 0.386 nM | IC50 [3]: 0.429 nM | Span [3]: 7190 RFU
B6: Antibody h#2D4 (antibody, V domains shown)
VH: B4 VH with A97V
VL: B4 VL
notes: Humanized variant of 11B12

Bmax [5]: 582000 RFU | Kd [5]: 0.292 nM | IC50 [3]: 0.391 nM | Span [3]: 7660 RFU
B7: Antibody h#2G6 (antibody, V domains shown)
VH: B4 VH with T74A
VL: B4 VL
notes: Humanized variant of 11B12

Bmax [4]: 683000 RFU | Kd [4]: 0.536 nM
B8: h#2G3 (antibody, V domains shown)
VH: B4 VH with V38I, F79V
VL: B4 VL with M4L
notes: also called Antibody h#2G3

Kd [6]: 0.185 nM | koff [6]: 0.000174 s⁻¹ | kon [6]: 940000 M⁻¹ s⁻¹ | binding result (LILRB1-His): no binding | binding result (LILRB3-His): no binding | Kd [1]: 0.493 nM | binding result [7]: no binding (tested: 5 µg/ml) | binding result [8]: no binding (tested: 5 µg/ml)
B9: Antibody 8A4 (antibody, V domains shown)
VH: QVQLKESGPGLVAPSQSLSITCTVSGFSLTDYGVNWVRQPPGKGLEWLGMIWGDGNTDYNSALKSRLSISKVNSKSQVFLKMNSLQTDDTARYYCARSSYRYDENIYYYAMDYWGQGTSVTVSS
VL: DIVMTQSPSSLTVTAGEEVTLSCKSSQSLLNSGIQKNYLTWYQQKPGQPPKLLIYWASTRESGVPDRFTGSVSGTDFTLTISSVQAEDLAVYYCQNDYSLPFTFGSGTKLEIK
notes: as for B1

Kd [6]: 0.962 nM | koff [6]: 0.00025 s⁻¹ | kon [6]: 260000 M⁻¹ s⁻¹ | binding result (LILRB3-His): no binding | Kd [1]: 0.804 nM | binding result [7]: no binding (tested: 5 µg/ml) | binding result [8]: no binding (tested: 5 µg/ml)
B10: Antibody 14C11 (antibody, V domains shown)
VH: EVQLQQSGPDLVKPGASVKISCKASGYIFTDFNMHWVKQSHGKSLEWIGYIYPFNGGTGYNQKFENKATLTVDNSSSTAYMEVRSLTSEDSAVYYCARRGGRGHFDYWGQGTTLTVSS
VL: DIQMTQSPASLSASVGETVTVTCRASGNIHNYLAWYQQKQGKSPQLLVYNAKTLADGVPSRFSGSGSGTQFSLKINSLQPEDFGSYYCQHFWNTPFTFGSGTKLEIK
notes: as for B1

Bmax [9]: 582000 RFU | Kd [9]: 0.171 nM
B11: chimeric 11B12 (antibody, V domains shown)
VH: DVQLQESGPGLVKPSQSLSLTCSVTGYSITSGYYWNWIRQFPGNKLEWMGYISYDGNNNYNPSLKNRISITRDTSKNQFFLKLNSVTTEDTATYYCAREESTMITTAWFAYWGQGTLVTVSA
VL: DIQMTQSPASLSVSVGETVTITCRASENIYSNLAWYQQKQGKSPQLLVYGATNLADGVPSRFSGSGSGTQYSLKINSLQSEDFGSYFCQHFWDTPYTFGGGTKLEIK

Kd [6]: 0.227 nM | koff [6]: 0.00014 s⁻¹ | kon [6]: 618000 M⁻¹ s⁻¹ | binding result (LILRB1-His): no binding | Kd [1]: 4.37 nM | binding result [7]: no binding (tested: 5 µg/ml) | binding result [8]: no binding (tested: 5 µg/ml)
B12: Antibody 12D8 (antibody, V domains shown)
VH: QVQLRQSGPGLVQPSQSLSITCTVSGFSLTSYGVHWVRQSPGKGLEWLGVIWSGGITDYNAAFISRLSISKDNSKSQVFFRMNSLQTNDTAIYYCAREIYGNPDYWGQGTTLTVSS
VL: DIVMTQSHKFMSTSVGDRVSITCKASQDVSIAVAWFQQKPGQSPKLLIYSASYRYTGVPDRFSGSGSGTDFTFTISSVQAEDLAVYYCQQHYSTPRTFGGGTKLEIK
notes: as for B1

binding result (LILRB1-His): no binding | binding result (LILRB3-His): no binding | Kd [1]: 2.93 nM | binding result [7]: no binding (tested: 5 µg/ml) | binding result [8]: no binding (tested: 5 µg/ml)
B13: Antibody 3B5 (antibody, V domains shown)
VH: EVQLQQSGPELVKPGASLKISCKASGYTFTDYNMHWVKQSHGKSLEWIGSIYPYNGDTDYNQKFKSKATLTIDNSSSTAFMDLRSLTSEDSAVYYCARENDYDGPPFPYWGLGTLVTVSA
VL: DIQMTQSSSSFSVSLGDRVTITCKASEDIYNRLAWYQQKSGNAPRLLISGATSLETGVPSRFSGSGSGKDYTLSITSLQTEDVATYYCQQYWSIRTFGGGTKLEIK
notes: as for B1

Kd [6]: 5.45 nM | koff [6]: 0.00137 s⁻¹ | kon [6]: 251000 M⁻¹ s⁻¹ | Kd [1]: 0.725 nM | binding result [10]: no binding (tested: 2 µg/ml)
B14: Antibody 15A6 (antibody, V domains shown)
VH: EVKLVESGGDLVKPGGSLKLSCAASGFTFSTYGMSWVRQTPEKRLEWVATISGSNSYTYYPDSVKGRFTISRDNAKNNLYLQMSSLRSEDTALYYCTRHENGYYFYAMDYWGQGTSVTVSS
VL: DVQITQSPSYLTASPGETITINCRSSKSITKYLAWYQEKPGKTNKLLIYSGSTLQSGIPSRFSGSGSGTDFTLTISSLEPEDFAMYYCQQHSEYPWTFGGGTRLEIK
notes: as for B1
